# Data as given in PMC5063977 (The Journal of Biological Chemistry, 2016).
# Columns and labels:
# [1] = molecular target: RAMP1-CLR heterodimer expressed in S. cerevisiae (human) (UniProt Q16602)
# [2] = molecular target: RAMP2-CLR heterodimer expressed in S. cerevisiae (human) (UniProt Q16602)
# [3] = molecular target: RAMP3-CLR heterodimer expressed in S. cerevisiae (human) (UniProt Q16602)
# [4] = molecular target: RAMP1-CLR complex expressed in HEK-293 cells (human) (UniProt Q16602)
# [5] = molecular target: RAMP2-CLR complex expressed in HEK-293 cells (human) (UniProt Q16602)
# [6] = molecular target: RAMP3-CLR complex expressed in HEK-293 cells (human) (UniProt Q16602)
# [7] = molecular target: RAMP1-CLR complex expressed in HEK-293 cells (human) (UniProt Q16602); remark: listed apart in the source
# [8] = molecular target: RAMP2-CLR complex expressed in HEK-293 cells (human) (UniProt Q16602); remark: listed apart in the source
# [9] = molecular target: RAMP3-CLR complex expressed in HEK-293 cells (human) (UniProt Q16602); remark: listed apart in the source
# [10] = molecular target: RAMP1-CLR complex expressed in HEK-293S cells (human) (UniProt Q16602)
# [11] = molecular target: RAMP2-CLR complex expressed in HEK-293S cells (human) (UniProt Q16602)
# [12] = molecular target: RAMP3-CLR complex expressed in HEK-293S cells (human) (UniProt Q16602)
# [13] = molecular target: RAMP1-CLR complex expressed in HEK-293 cells (human) (UniProt Q16602); remark: listed apart in the source
# [14] = molecular target: RAMP1-CLR complex expressed in HEK-293S cells (human) (UniProt Q16602); remark: listed apart in the source
# [15] = molecular target: RAMP2-CLR complex expressed in HEK-293 cells (human) (UniProt Q16602); remark: listed apart in the source
# [16] = molecular target: RAMP2-CLR complex expressed in HEK-293S cells (human) (UniProt Q16602); remark: listed apart in the source
# [17] = molecular target: RAMP3-CLR complex expressed in HEK-293 cells (human) (UniProt Q16602); remark: listed apart in the source
# [18] = molecular target: RAMP3-CLR complex expressed in HEK-293S cells (human) (UniProt Q16602); remark: listed apart in the source
# RAMP2-CLR complex expressed in HEK-293S cells (human), sequence (Q16602 23-461, chain 1 of 2): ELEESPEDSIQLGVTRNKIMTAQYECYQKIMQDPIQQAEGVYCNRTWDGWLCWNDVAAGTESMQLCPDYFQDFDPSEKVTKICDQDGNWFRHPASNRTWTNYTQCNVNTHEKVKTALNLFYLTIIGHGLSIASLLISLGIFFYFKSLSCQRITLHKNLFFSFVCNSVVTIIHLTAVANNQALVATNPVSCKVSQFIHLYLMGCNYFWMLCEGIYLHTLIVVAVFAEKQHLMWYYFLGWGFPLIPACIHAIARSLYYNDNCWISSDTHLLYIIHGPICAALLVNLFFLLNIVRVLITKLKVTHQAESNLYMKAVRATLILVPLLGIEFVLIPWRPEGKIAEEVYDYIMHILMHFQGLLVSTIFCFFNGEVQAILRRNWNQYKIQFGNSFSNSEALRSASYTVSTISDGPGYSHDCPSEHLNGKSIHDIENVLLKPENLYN
# RAMP2-CLR complex expressed in HEK-293S cells (human), sequence (O60895 43-175, chain 2 of 2, further chain): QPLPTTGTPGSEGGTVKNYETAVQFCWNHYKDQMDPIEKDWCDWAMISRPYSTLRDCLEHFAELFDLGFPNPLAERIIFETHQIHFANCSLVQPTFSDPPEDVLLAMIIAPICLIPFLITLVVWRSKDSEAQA
# RAMP3-CLR complex expressed in HEK-293S cells (human), sequence (Q16602 23-461, chain 1 of 2): as the sequence (Q16602 23-461, chain 1 of 2) above
# RAMP3-CLR complex expressed in HEK-293S cells (human), sequence (O60896 24-148, chain 2 of 2, further chain): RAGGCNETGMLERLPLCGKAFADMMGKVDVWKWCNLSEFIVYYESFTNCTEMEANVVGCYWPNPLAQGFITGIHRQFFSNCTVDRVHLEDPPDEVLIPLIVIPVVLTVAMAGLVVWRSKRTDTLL
# RAMP3-CLR heterodimer expressed in S. cerevisiae (human), sequence (Q16602 23-461, chain 1 of 2): as the sequence (Q16602 23-461, chain 1 of 2) above
# RAMP3-CLR heterodimer expressed in S. cerevisiae (human), sequence (O60896 24-148, chain 2 of 2, further chain): as the sequence (O60896 24-148, chain 2 of 2, further chain) above
# RAMP1-CLR complex expressed in HEK-293S cells (human), sequence (Q16602 23-461, chain 1 of 2): as the sequence (Q16602 23-461, chain 1 of 2) above
# RAMP1-CLR complex expressed in HEK-293S cells (human), sequence (O60894 27-148, chain 2 of 2, further chain): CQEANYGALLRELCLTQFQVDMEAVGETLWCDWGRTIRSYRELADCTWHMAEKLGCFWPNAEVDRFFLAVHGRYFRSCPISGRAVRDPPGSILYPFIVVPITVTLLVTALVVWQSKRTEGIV
# RAMP1-CLR heterodimer expressed in S. cerevisiae (human), sequence (Q16602 23-461, chain 1 of 2): as the sequence (Q16602 23-461, chain 1 of 2) above
# RAMP1-CLR heterodimer expressed in S. cerevisiae (human), sequence (O60894 27-148, chain 2 of 2, further chain): as the sequence (O60894 27-148, chain 2 of 2, further chain) above
# RAMP3-CLR complex expressed in HEK-293 cells (human), sequence (Q16602 23-461, chain 1 of 2): as the sequence (Q16602 23-461, chain 1 of 2) above
# RAMP3-CLR complex expressed in HEK-293 cells (human), sequence (O60896 24-148, chain 2 of 2, further chain): as the sequence (O60896 24-148, chain 2 of 2, further chain) above
# RAMP1-CLR complex expressed in HEK-293 cells (human), sequence (Q16602 23-461, chain 1 of 2): as the sequence (Q16602 23-461, chain 1 of 2) above
# RAMP1-CLR complex expressed in HEK-293 cells (human), sequence (O60894 27-148, chain 2 of 2, further chain): as the sequence (O60894 27-148, chain 2 of 2, further chain) above
# RAMP2-CLR complex expressed in HEK-293 cells (human), sequence (Q16602 23-461, chain 1 of 2): as the sequence (Q16602 23-461, chain 1 of 2) above
# RAMP2-CLR complex expressed in HEK-293 cells (human), sequence (O60895 43-175, chain 2 of 2, further chain): as the sequence (O60895 43-175, chain 2 of 2, further chain) above
# RAMP2-CLR heterodimer expressed in S. cerevisiae (human), sequence (Q16602 23-461, chain 1 of 2): as the sequence (Q16602 23-461, chain 1 of 2) above
# RAMP2-CLR heterodimer expressed in S. cerevisiae (human), sequence (O60895 43-175, chain 2 of 2, further chain): as the sequence (O60895 43-175, chain 2 of 2, further chain) above
substance,measurement,setting,value
hAM2 (1–47) (peptide),"pEC50, yeast growth reporter, GPA1/Gαi chimera strain",[1],8.57 -log10
same,"pEC50, yeast growth reporter, GPA1/Gαq chimera strain",[1],7.99 -log10
same,"pEC50, yeast growth reporter, GPA1/Gαs chimera strain",[1],7.22 -log10
same,"pKa (operational model of agonism), yeast growth reporter, GPA1/Gαi chimera strain",[1],8.24 -log10
same,"pKa (operational model of agonism), yeast growth reporter, GPA1/Gαq chimera strain",[1],7.91 -log10
same,"pKa (operational model of agonism), yeast growth reporter, GPA1/Gαs chimera strain",[1],7.31 -log10
same,"pEC50, yeast growth reporter, GPA1/Gαi chimera strain",[2],8.42 -log10
same,"pEC50, yeast growth reporter, GPA1/Gαq chimera strain",[2],9.22 -log10
same,"pEC50, yeast growth reporter, GPA1/Gαs chimera strain",[2],8.05 -log10
same,"pKa (operational model of agonism), yeast growth reporter, GPA1/Gαi chimera strain",[2],8.3 -log10
same,"pKa (operational model of agonism), yeast growth reporter, GPA1/Gαq chimera strain",[2],9.16 -log10
same,"pKa (operational model of agonism), yeast growth reporter, GPA1/Gαs chimera strain",[2],8.1 -log10
same,"pEC50, yeast growth reporter, GPA1/Gαi chimera strain",[3],8.49 -log10
same,"pEC50, yeast growth reporter, GPA1/Gαq chimera strain",[3],6.76 -log10
same,"pEC50, yeast growth reporter, GPA1/Gαs chimera strain",[3],8.85 -log10
same,"pKa (operational model of agonism), yeast growth reporter, GPA1/Gαi chimera strain",[3],8.3 -log10
same,"pKa (operational model of agonism), yeast growth reporter, GPA1/Gαq chimera strain",[3],6.6 -log10
same,"pKa (operational model of agonism), yeast growth reporter, GPA1/Gαs chimera strain",[3],8.61 -log10
same,"pEC50, cAMP accumulation in HEK-293 cells",[4],7.93 -log10
same,"pKa (operational model of agonism), cAMP accumulation in HEK-293 cells",[4],7.76 -log10
same,"pEC50, cAMP accumulation in HEK-293 cells",[5],7.48 -log10
same,"pKa (operational model of agonism), cAMP accumulation in HEK-293 cells",[5],7.16 -log10
same,"pEC50, cAMP accumulation in HEK-293 cells",[6],9.14 -log10
same,"pKa (operational model of agonism), cAMP accumulation in HEK-293 cells",[6],9 -log10
same,"pEC50, cAMP accumulation in HEK-293 cells, with PTX pretreatment",[7],9.15 -log10
same,"pEC50, cAMP accumulation in HEK-293 cells, without PTX",[7],7.93 -log10
same,"pKa (operational model of agonism), cAMP accumulation in HEK-293 cells, with PTX pretreatment",[7],8.56 -log10
same,"pKa (operational model of agonism), cAMP accumulation in HEK-293 cells, without PTX",[7],7.7 -log10
same,"pKa (operational model of agonism), cAMP accumulation in HEK-293 cells, with PTX pretreatment",[8],8.84 -log10
same,"pEC50, cAMP accumulation in HEK-293 cells, with PTX pretreatment",[9],8.74 -log10
same,"pEC50, cAMP accumulation in HEK-293 cells, without PTX",[9],9.1 -log10
same,"pKa (operational model of agonism), cAMP accumulation in HEK-293 cells, with PTX pretreatment",[9],8.43 -log10
same,"pKa (operational model of agonism), cAMP accumulation in HEK-293 cells, without PTX",[9],9.08 -log10
same,"pEC50, cAMP accumulation in HEK-293S cells, with PTX pretreatment",[10],8.78 -log10
same,"pEC50, cAMP accumulation in HEK-293S cells, without PTX",[10],8.74 -log10
same,"pEC50, cAMP accumulation in HEK-293S cells, without PTX",[11],8.57 -log10
same,"pEC50, cAMP accumulation in HEK-293S cells, with PTX pretreatment",[12],7.79 -log10
same,"pEC50, cAMP accumulation in HEK-293S cells, without PTX",[12],8.01 -log10
same,"pEC50, (Ca^2+)i mobilization in HEK-293 cells",[13],6.76 -log10
same,"pKa (operational model of agonism), (Ca^2+)i mobilization in HEK-293 cells",[13],6.64 -log10
same,"pEC50, (Ca^2+)i mobilization in HEK-293S cells",[14],6.94 -log10
same,"pKa (operational model of agonism), (Ca^2+)i mobilization in HEK-293S cells",[14],6.76 -log10
same,"pEC50, (Ca^2+)i mobilization in HEK-293 cells",[15],7.41 -log10
same,"pKa (operational model of agonism), (Ca^2+)i mobilization in HEK-293 cells",[15],7.15 -log10
same,"pEC50, (Ca^2+)i mobilization in HEK-293S cells",[16],7.42 -log10
same,"pKa (operational model of agonism), (Ca^2+)i mobilization in HEK-293S cells",[16],7.33 -log10
same,"pEC50, (Ca^2+)i mobilization in HEK-293 cells",[17],8.05 -log10
same,"pKa (operational model of agonism), (Ca^2+)i mobilization in HEK-293 cells",[17],7.95 -log10
same,"pEC50, (Ca^2+)i mobilization in HEK-293S cells",[18],7.44 -log10
same,"pKa (operational model of agonism), (Ca^2+)i mobilization in HEK-293S cells",[18],7.35 -log10
